{"source": "patent US9675625B2", "about": "“Medicament comprising recombinant antibody against chemokine receptor CCR4” (KYOWA HAKKO KIRIN CO., LTD., priority 2003, dated 2017)", "molecules": {"B1": {"name": "KM 2760: anti-CCR4 human chimeric antibody KM 2760 (FERM BP-7054, WO 01/64754) (antibody, V domains shown)", "VH": "EVQLVESGGDLMKPGGSLKISCAASGFIFSNYGMSWVRQTPDMRLEWVATISSASTYSYYPDSVKGRFTISRDNAENSLYLQMNSLRSEDTGIYYCGRHSDGNFAFGYWGRGTLVTVSA", "VL": "DVLMTQTPLSLPVSLGDQASISCRSSRNIVHINGDTYLEWYLQRPGQSPKLLIYKVSNRFSGVPDRFSGSGSGTDFTLKISRVEAEDLGVYYCFQGSLLPWTFGGGTRLEIRR"}}, "key": {"[1]": {"system": "CCRF-CEM cells", "experiment": "antitumor effect of KM 2760 and cyclophosphamide in combination, CCRF-CEM cells grafted in nude mouse", "assay_type": "in vivo, Balb/c nude mouse", "conditions": "Day 4; KM 2760 800 μg per mouse Day 0 and Day 4; CPA 65 mg/kg Day 0; tail vein", "protocol": "CCRF-CEM cells (human T cell leukemia cell line) were suspended in RPMI 1640 medium (Gibco BRL) at a concentration of 2×10^8 cells/mL, and 100 μL of the suspension was grafted intradermally in the right flank of Balb/c nude mice (Nippon Crea, male). On Day 18 after the cell grafting, a diameter of a tumor was measured with calipers, and a tumor volume was calculated using formula 2 in Example 2.\nIndividuals having the tumor volume within the range of 116 to 349 mm^3 (on average 219 mm^3) were selected, and grouped such that the average tumor volume to be almost the same. Each of the following agent A to D was administered to the mice. Incidentally, the grouping day was defined as Day 0.\nThe experiment was conducted with groups each consisting of five mice. Each of the agents was diluted with a physiological saline (Otsuka Seiyaku), and the diluent was administered from the tail vein. On Day 4, the tumor volume was measured. The antitumor effect was evaluated by comparing an average values of a tumor volume change (V/V0) on each measurement day when the tumor volume on Day 0 in each group was defined as V0."}, "[2]": {"system": "CCRF-CEM cells", "experiment": "antitumor effect of KM 2760 and etoposide in combination, CCRF-CEM cells grafted in nude mouse", "assay_type": "in vivo, Balb/c nude mouse", "conditions": "Day 7; KM 2760 800 μg per mouse Day 0 and Day 4; VP-16 10 mg/kg Day 0 to Day 4; tail vein", "description": "CCRF-CEM cells (human T cell leukemia cell line) were suspended in RPMI 1640 medium (Gibco BRL) at a concentration of 2×10^8 cells/mL, and 100 μL of the suspension was grafted into the ventral skin of Balb/c nude mice (Nippon Crea, male). On Day 17 after the cell grafting, a diameter of a tumor was measured with calipers, and a tumor volume was calculated using formula 2 in Example 2.\nIndividuals having the tumor volume within the range of from 121 to 348 mm^3 (on average 195 mm^3) were selected, and grouped such that the average tumor volume to be almost the same. Each of the following agents A to D was then administered to the mice. Incidentally, the grouping day was defined as Day 0.\nB. Group of administering KM 2760 alone: 800 μg of KM2760 was administered per mouse on Day 0 and Day 4.\nC. Group of administering etoposide (hereinafter referred to as VP-16; Lastet injection, Nippon Kayaku Co., Ltd.) alone: 10 mg/kg of VP-16 was administered per mouse for 5 days from Day 0 to Day 4. […]\nThe experiment was conducted with groups each consisting of five mice. […] On Day 7, the tumor volume was measured. The antitumor effect was evaluated by comparing average values of a tumor volume change (V/V0) on Day 7 when the tumor volume on Day 0 in each group was defined as V0."}, "[3]": {"system": "CCR4/EL4 cells", "experiment": "antitumor effect of KM 2760 and G-CSF in combination, CCR4/EL4 cells grafted into ventral skin of C57BL/6 mice", "assay_type": "in vivo, C57BL/6 mouse", "description": "CCR4/EL4 cells (WO 01/64754) were suspended, in RPMI 1640 medium (Gibco BRL) at a concentration of 1×10^6 cells/mL, and 100 μL of the suspension was grafted into the right ventral skin of C57BL/6 mice (Nippon Crea, male, 8 weeks old). After, mice were grouped into A to D, each of the agents A to D were administered to each mouse. Incidentally, the day on which the tumor was grafted was defined as Day 0.\nB. Group of administering KM 2760 alone: 100 μg of KM2760 was intravenously administered per mouse on Day 0 and Day 4.\nC. Group of administering G-CSF alone: 10 μg of G-CSF (Neuup Injection 100, manufactured by Kyowa Hakko Kogyo Co., Ltd.) was subcutaneously administered per mouse once a day for 10 days from 4 days before the tumor grafting (hereinafter referred to as Day-4) to Day 5.\nThe experiment was conducted with group A consisting of 10 mice and groups B, C and D each consisting of 7 mice. […] Each of the diluent was administered at 100 μL. A diameter of a tumor was measured with calipers chronologically from Day 0 of each group. A tumor volume was calculated using formula 2 in Example 2.\nSince the tumor death of the mouse was started in group A from Day 17 on, the evaluation of the tumor volume was finished on Day 14.\nThe antitumor effect (T/C value) in each group was evaluated by calculation using the following formula 3 for comparison between the average value of the tumor volume in group A and the average values of the tumor volume in each group on the final evaluation day (Day 14). (T/C value)=(average value of tumor volume in each group on Day 14)/average value of tumor volume in group A on Day 14) (Formula 3)"}, "[4]": {"system": "CCR4/EL4 cells", "protocol": "CCR4/EL4 cells (WO 01/64754) were suspended in RPMI 1640 medium (manufactured by Gibco BRL) at a concentration of 1×10^5 cells/mL, and 200 μL of the suspension was grafted into the peritoneal cavity of C57BL/6 mice (CLEA Japan Inc., male, 8 weeks old). After, mice was grouped into A to D, and each of the agents A to D was administered to each mouse. The day on which the tumor was grafted was defined as Day 0.\nB. Group of administering M-CSF alone: 100 μg of M-CSF (Leucoprol, manufactured by Kyowa Hakko Kogyo Co., Ltd.) was intraperitoneally administered per mouse twice a day from Day-3 to Day-1 and once a day on Day 0, seven times in total.\nThe experiment was conducted with groups each consisting of 8 mice. […] The antitumor effect was evaluated by a ratio of average values of the number of survival days of mice in each group to an average value of the number of survival days of mice in the negative control group (hereinafter referred to as a life prolongation ratio)."}, "[5]": {"conditions": "KM 2760 50 μg i.p. Day 0, M-CSF 100 μg i.p. seven times"}}, "note": "Values joined by “and” are separate entries in the source; they are usually repeats but may differ in a detail not shown here. Identical values can stand only once."}
{"molecule": "B1", "values": [{"measurement": "T/C (V/V0 of group divided by V/V0 of negative control group)", "setting": "[1]", "value": 0.80}, {"measurement": "T/C (V/V0 of group divided by V/V0 of negative control group)", "setting": "[2]", "value": 0.65}, {"measurement": "T/C value (average tumor volume of group / group A)", "setting": "[3]; Day 14, KM 2760 100 μg per mouse i.v. Day 0 and Day 4, G-CSF 10 μg per mouse s.c. once a day Day-4 to Day 5", "value": 0.48}, {"measurement": "antitumor effect compared to untreated group A (tumor volume)", "setting": "[3]; FIG. 6, up to Day 14", "value": "low"}, {"measurement": "Number of survival days (each mouse)", "setting": "[4]; 8 mice per group, KM 2760 50 μg per mouse i.p. Day 0, M-CSF 100 μg per mouse i.p. seven times Day-3 to Day 0, observation to Day 50", "value": "19 days and 21 days (3×) and 22 days and 24 days and 26 days and 27 days"}, {"measurement": "Average number of survival days", "setting": "[4]; [5]", "value": 22.9, "unit": "days"}, {"measurement": "Life prolongation ratio (average survival days of group / negative control group)", "setting": "[4]; [5]", "value": 1.19}, {"measurement": "antitumor effect in comparison with untreated Group A (survival)", "setting": "[4]; Table 7", "value": "low"}]}
